B1: peptide HD2 (from tick evasin EVA4) / CCL19 (biotinylated, synthetic) (parent complex)
chain 1: EEDDYTAYAPLTCYFT
chain 2: GTNDAEDCCLSVTQKPIPGYIVRNFHYLLIKDGCRVPAVVFTTLRGRQLCAPPDQPWVERIIQRLQRTSAKMKRRSS
B2: peptide HD2 (from tick evasin EVA4) / CCL17 (biotinylated, synthetic) (parent complex)
chain 1: EEDDYTAYAPLTCYFT
chain 2: ARGTNVGRECCLEYFKGAIPLRKLKTWYQTSEDCSRDAIVFVTVQGRAICSDPNNKRVKNAVKYLQSLERS

Variants of: B1
chain 1 EEDDYTAYAPLTCYKT [chain 1 F15K] was tested, and the enrichment was -4.98 log2 (difference from the parental peptide). For chain 1 EEDDYTAYAPLTCYRT [chain 1 F15R], the enrichment was -6.02 log2 (difference from the parental peptide). In the case of chain 1 EEDDYMAYAPLTCYFT [chain 1 T6M], the enrichment is reported as 1.73 log2 (difference from the parental peptide). In the case of chain 1 EVDDYTAYAPLTCYFT [chain 1 E2V], the enrichment is reported as 0.565 log2 (difference from the parental peptide). For chain 1 EEDDYTAYAPLTCYFA [chain 1 T16A], the enrichment was -1.59 log2 (difference from the parental peptide). In the case of chain 1 EEDDYTAYAPLTCYFG [chain 1 T16G], the enrichment is reported as -4.08 log2 (difference from the parental peptide). chain 1 EEDDYTAYAPLTCYFM [chain 1 T16M] was tested, and the enrichment was 0.0438 log2 (difference from the parental peptide). chain 1 KEDDYTAYAPLTCYFT [chain 1 E1K] was tested, and the enrichment was -4.04 log2 (difference from the parental peptide). For chain 1 DEDDYTAYAPLTCYFT [chain 1 E1D], the enrichment was 0.567 log2 (difference from the parental peptide). For chain 1 REDDYTAYAPLTCYFT [chain 1 E1R], the enrichment was -6.95 log2 (difference from the parental peptide). chain 1 EEDDYTAFAPLTCYFT [chain 1 Y8F] was tested, and the enrichment was -1.35 log2 (difference from the parental peptide). chain 1 EEDDYTAWAPLTCYFT [chain 1 Y8W] was tested, and the enrichment was 0.479 log2 (difference from the parental peptide). With chain 1 EEDDYTAYAPRTCYFT [chain 1 L11R] the enrichment was -3.8 log2 (difference from the parental peptide). chain 1 EEDDYTAYAPITCYFT [chain 1 L11I] was tested, and the enrichment was 1.76 log2 (difference from the parental peptide). With chain 1 EEDDYTAYAPLTCLFT [chain 1 Y14L] the enrichment was -9.46 log2 (difference from the parental peptide). In the case of chain 1 EEDDYTAYAPLTCKFT [chain 1 Y14K], the enrichment is reported as -5.55 log2 (difference from the parental peptide). With chain 1 EEDDYTAYNPLTCYFT [chain 1 A9N] the enrichment was -3.82 log2 (difference from the parental peptide). For chain 1 EEDDYTAYSPLTCYFT [chain 1 A9S], the enrichment was -6.72 log2 (difference from the parental peptide). chain 1 EEDDYTGYAPLTCYFT [chain 1 A7G] was tested, and the enrichment was -5.86 log2 (difference from the parental peptide). With chain 1 EEDLYTAYAPLTCYFT [chain 1 D4L] the enrichment was -2.61 log2 (difference from the parental peptide).

Variants of: B2
With chain 1 EEDDYTAYAPLTCYIT [chain 1 F15I] the enrichment was 0.435 log2 (difference from the parental peptide). In the case of chain 1 EEDDYTAYAPLTCYDT [chain 1 F15D], the enrichment is reported as -0.947 log2 (difference from the parental peptide). In the case of chain 1 EEDDYTAYAPLTCYCT [chain 1 F15C], the enrichment is reported as -5.94 log2 (difference from the parental peptide). In the case of chain 1 EEDDYTAYAPLTCYWT [chain 1 F15W], the enrichment is reported as -1.65 log2 (difference from the parental peptide). In the case of chain 1 EEDDYTAYAPLTCYST [chain 1 F15S], the enrichment is reported as -0.792 log2 (difference from the parental peptide). For chain 1 EEDDYTAYAPLTCYET [chain 1 F15E], the enrichment was -1.17 log2 (difference from the parental peptide). In the case of chain 1 EEDDYTAYMPLTCYFT [chain 1 A9M], the enrichment is reported as -5.43 log2 (difference from the parental peptide). In the case of chain 1 EEDDYTAYRPLTCYFT [chain 1 A9R], the enrichment is reported as -4.45 log2 (difference from the parental peptide). For chain 1 EEDDYTAYLPLTCYFT [chain 1 A9L], the enrichment was -7.01 log2 (difference from the parental peptide). With chain 1 EEDDYTAYTPLTCYFT [chain 1 A9T] the enrichment was -4.51 log2 (difference from the parental peptide). chain 1 EEDDYTAYSPLTCYFT [chain 1 A9S] was tested, and the enrichment was -0.697 log2 (difference from the parental peptide). For chain 1 EEDDYTAYFPLTCYFT [chain 1 A9F], the enrichment was -8.26 log2 (difference from the parental peptide). In the case of chain 1 EEDDYTAYHPLTCYFT [chain 1 A9H], the enrichment is reported as -5.14 log2 (difference from the parental peptide). For chain 1 EEDDYTPYAPLTCYFT [chain 1 A7P], the enrichment was 1.3 log2 (difference from the parental peptide). For chain 1 EEDDYTLYAPLTCYFT [chain 1 A7L], the enrichment was -0.26 log2 (difference from the parental peptide). In the case of chain 1 EEDDYTKYAPLTCYFT [chain 1 A7K], the enrichment is reported as 3.56 log2 (difference from the parental peptide). With chain 1 EEDDYTIYAPLTCYFT [chain 1 A7I] the enrichment was -4.17 log2 (difference from the parental peptide). In the case of chain 1 EEDDYTRYAPLTCYFT [chain 1 A7R], the enrichment is reported as 3.96 log2 (difference from the parental peptide). For chain 1 EEDDYTQYAPLTCYFT [chain 1 A7Q], the enrichment was 1.91 log2 (difference from the parental peptide). chain 1 EEDDVTAYAPLTCYFT [chain 1 Y5V] was tested, and the enrichment was -6.56 log2 (difference from the parental peptide). For chain 1 EEDDCTAYAPLTCYFT [chain 1 Y5C], the enrichment was -5.02 log2 (difference from the parental peptide). With chain 1 EEDDDTAYAPLTCYFT [chain 1 Y5D] the enrichment was -5.57 log2 (difference from the parental peptide). In the case of chain 1 EEDDLTAYAPLTCYFT [chain 1 Y5L], the enrichment is reported as -3.76 log2 (difference from the parental peptide). In the case of chain 1 KEDDYTAYAPLTCYFT [chain 1 E1K], the enrichment is reported as -0.679 log2 (difference from the parental peptide). chain 1 HEDDYTAYAPLTCYFT [chain 1 E1H] was tested, and the enrichment was -0.323 log2 (difference from the parental peptide). chain 1 FEDDYTAYAPLTCYFT [chain 1 E1F] was tested, and the enrichment was -1.75 log2 (difference from the parental peptide). In the case of chain 1 SEDDYTAYAPLTCYFT [chain 1 E1S], the enrichment is reported as 0.17 log2 (difference from the parental peptide). In the case of chain 1 PEDDYTAYAPLTCYFT [chain 1 E1P], the enrichment is reported as -1.24 log2 (difference from the parental peptide). In the case of chain 1 REDDYTAYAPLTCYFT [chain 1 E1R], the enrichment is reported as -1.72 log2 (difference from the parental peptide). In the case of chain 1 TEDDYTAYAPLTCYFT [chain 1 E1T], the enrichment is reported as -0.325 log2 (difference from the parental peptide). In the case of chain 1 EEWDYTAYAPLTCYFT [chain 1 D3W], the enrichment is reported as -4.02 log2 (difference from the parental peptide). In the case of chain 1 EENDYTAYAPLTCYFT [chain 1 D3N], the enrichment is reported as -1.74 log2 (difference from the parental peptide). chain 1 EEPDYTAYAPLTCYFT [chain 1 D3P] was tested, and the enrichment was -2.92 log2 (difference from the parental peptide). For chain 1 EEGDYTAYAPLTCYFT [chain 1 D3G], the enrichment was -4.23 log2 (difference from the parental peptide). In the case of chain 1 EEVDYTAYAPLTCYFT [chain 1 D3V], the enrichment is reported as -5.2 log2 (difference from the parental peptide). For chain 1 EEIDYTAYAPLTCYFT [chain 1 D3I], the enrichment was -4.4 log2 (difference from the parental peptide). With chain 1 EEKDYTAYAPLTCYFT [chain 1 D3K] the enrichment was -3.46 log2 (difference from the parental peptide). For chain 1 EERDYTAYAPLTCYFT [chain 1 D3R], the enrichment was -5.97 log2 (difference from the parental peptide). With chain 1 EEDDYTAYAPLTRYFT [chain 1 C13R] the enrichment was -10.7 log2 (difference from the parental peptide). chain 1 EEDDYTAYAPLTLYFT [chain 1 C13L] was tested, and the enrichment was -6.33 log2 (difference from the parental peptide). In the case of chain 1 EEDDYTAYAPLTIYFT [chain 1 C13I], the enrichment is reported as -2.82 log2 (difference from the parental peptide). chain 1 EEDDYTAYAPLTEYFT [chain 1 C13E] was tested, and the enrichment was -7.45 log2 (difference from the parental peptide). For chain 1 EEDDYTAYAPLTYYFT [chain 1 C13Y], the enrichment was -5.68 log2 (difference from the parental peptide). With chain 1 EEDDYTAYAPLTPYFT [chain 1 C13P] the enrichment was -6.7 log2 (difference from the parental peptide). chain 1 EEDDYTAYAPLTCYFH [chain 1 T16H] was tested, and the enrichment was 0.123 log2 (difference from the parental peptide). chain 1 EEDDYTAYAPLTCYFF [chain 1 T16F] was tested, and the enrichment was -0.625 log2 (difference from the parental peptide). With chain 1 EEDDYTAYAPLTCYFK [chain 1 T16K] the enrichment was 0.193 log2 (difference from the parental peptide). With chain 1 EEDDYTAYAPLTCYFL [chain 1 T16L] the enrichment was 0.451 log2 (difference from the parental peptide). With chain 1 EEDDYTAYAYLTCYFT [chain 1 P10Y] the enrichment was -6.08 log2 (difference from the parental peptide). chain 1 EEDDYTAYAFLTCYFT [chain 1 P10F] was tested, and the enrichment was -7.51 log2 (difference from the parental peptide). chain 1 EEDAYTAYAPLTCYFT [chain 1 D4A] was tested, and the enrichment was -3.66 log2 (difference from the parental peptide). With chain 1 EEDLYTAYAPLTCYFT [chain 1 D4L] the enrichment was -4.56 log2 (difference from the parental peptide). For chain 1 EEDTYTAYAPLTCYFT [chain 1 D4T], the enrichment was -5.39 log2 (difference from the parental peptide). chain 1 EEDHYTAYAPLTCYFT [chain 1 D4H] was tested, and the enrichment was -6.29 log2 (difference from the parental peptide). chain 1 EEDGYTAYAPLTCYFT [chain 1 D4G] was tested, and the enrichment was -4.74 log2 (difference from the parental peptide). In the case of chain 1 EADDYTAYAPLTCYFT [chain 1 E2A], the enrichment is reported as -0.532 log2 (difference from the parental peptide). For chain 1 EPDDYTAYAPLTCYFT [chain 1 E2P], the enrichment was -2.4 log2 (difference from the parental peptide). chain 1 EQDDYTAYAPLTCYFT [chain 1 E2Q] was tested, and the enrichment was -0.416 log2 (difference from the parental peptide). With chain 1 EVDDYTAYAPLTCYFT [chain 1 E2V] the enrichment was -1.03 log2 (difference from the parental peptide). chain 1 ERDDYTAYAPLTCYFT [chain 1 E2R] was tested, and the enrichment was -1.35 log2 (difference from the parental peptide). In the case of chain 1 ELDDYTAYAPLTCYFT [chain 1 E2L], the enrichment is reported as -1.6 log2 (difference from the parental peptide). With chain 1 EEDDYTAYAPLLCYFT [chain 1 T12L] the enrichment was 0.297 log2 (difference from the parental peptide). In the case of chain 1 EEDDYTAYAPLFCYFT [chain 1 T12F], the enrichment is reported as 0.112 log2 (difference from the parental peptide). For chain 1 EEDDYTAYAPLRCYFT [chain 1 T12R], the enrichment was -1.85 log2 (difference from the parental peptide). For chain 1 EEDDYTAYAPLECYFT [chain 1 T12E], the enrichment was -5.73 log2 (difference from the parental peptide). chain 1 EEDDYTAYAPLACYFT [chain 1 T12A] was tested, and the enrichment was -4.61 log2 (difference from the parental peptide). chain 1 EEDDYFAYAPLTCYFT [chain 1 T6F] was tested, and the enrichment was -2.91 log2 (difference from the parental peptide). chain 1 EEDDYGAYAPLTCYFT [chain 1 T6G] was tested, and the enrichment was 2.24 log2 (difference from the parental peptide). chain 1 EEDDYEAYAPLTCYFT [chain 1 T6E] was tested, and the enrichment was 1.53 log2 (difference from the parental peptide). In the case of chain 1 EEDDYIAYAPLTCYFT [chain 1 T6I], the enrichment is reported as -6.22 log2 (difference from the parental peptide). In the case of chain 1 EEDDYSAYAPLTCYFT [chain 1 T6S], the enrichment is reported as 2.6 log2 (difference from the parental peptide). With chain 1 EEDDYNAYAPLTCYFT [chain 1 T6N] the enrichment was 0.737 log2 (difference from the parental peptide). With chain 1 EEDDYWAYAPLTCYFT [chain 1 T6W] the enrichment was 0.392 log2 (difference from the parental peptide). chain 1 EEDDYDAYAPLTCYFT [chain 1 T6D] was tested, and the enrichment was 1.63 log2 (difference from the parental peptide). chain 1 EEDDYQAYAPLTCYFT [chain 1 T6Q] was tested, and the enrichment was 0.398 log2 (difference from the parental peptide). In the case of chain 1 EEDDYTAYAPGTCYFT [chain 1 L11G], the enrichment is reported as -8.35 log2 (difference from the parental peptide). With chain 1 EEDDYTAYAPPTCYFT [chain 1 L11P] the enrichment was -5.62 log2 (difference from the parental peptide). With chain 1 EEDDYTAYAPCTCYFT [chain 1 L11C] the enrichment was 0.521 log2 (difference from the parental peptide). For chain 1 EEDDYTAYAPMTCYFT [chain 1 L11M], the enrichment was 3.11 log2 (difference from the parental peptide). With chain 1 EEDDYTAYAPFTCYFT [chain 1 L11F] the enrichment was -0.993 log2 (difference from the parental peptide). In the case of chain 1 EEDDYTAYAPLTCGFT [chain 1 Y14G], the enrichment is reported as -6.43 log2 (difference from the parental peptide). chain 1 EEDDYTAYAPLTCSFT [chain 1 Y14S] was tested, and the enrichment was -5.6 log2 (difference from the parental peptide). chain 1 EEDDYTAYAPLTCWFT [chain 1 Y14W] was tested, and the enrichment was -0.976 log2 (difference from the parental peptide). With chain 1 EEDDYTAYAPLTCIFT [chain 1 Y14I] the enrichment was -2.85 log2 (difference from the parental peptide). chain 1 EEDDYTAYAPLTCHFT [chain 1 Y14H] was tested, and the enrichment was -3.18 log2 (difference from the parental peptide). For chain 1 EEDDYTAYAPLTCKFT [chain 1 Y14K], the enrichment was -7.27 log2 (difference from the parental peptide). chain 1 EEDDYTAYAPLTCAFT [chain 1 Y14A] was tested, and the enrichment was -6.44 log2 (difference from the parental peptide). In the case of chain 1 EEDDYTAYAPLTCQFT [chain 1 Y14Q], the enrichment is reported as -4.69 log2 (difference from the parental peptide). In the case of chain 1 EEDDYTAYAPLTCFFT [chain 1 Y14F], the enrichment is reported as -0.272 log2 (difference from the parental peptide). In the case of chain 1 EEDDYTAYAPLTCVFT [chain 1 Y14V], the enrichment is reported as -3.57 log2 (difference from the parental peptide). With chain 1 EEDDYTAYAPLTCMFT [chain 1 Y14M] the enrichment was -4.32 log2 (difference from the parental peptide). For chain 1 EEDDYTAYAPLTCPFT [chain 1 Y14P], the enrichment was -7.37 log2 (difference from the parental peptide).
